# Assay: soluble on expression in E. coli; label from the status in PepcDB or PDB records
row,Sequence,soluble on expression in E. coli
1,MSLEALFNPKSIAVIGASSKPGKIGYAIMKNLIEYGYEGKIYPVNIKGGEMEISGRKFKVYKSILEVPDEVDMAVIVVPAKSVPEVVEECGKKGVKVAPIISSGFGELGEEGKKVEQQLVETARKYGMRILGPNIFGVVYTPAKLNATFGPTDVLPGPLALISQSGALGIALMGWTILEKIGLSAVVSVGNKADIDDADLLEFFKDDENTKAILIYMEGVKDGRRFMEVAKEVSKKKPIIVIKAGRSERGAKAAASHTGSLAGSDTIYSAAFKQTGVLRALTIGEAFDWARALSNLPEPQGENVVIITNGGGIGVMATDAAEEEGLHLYDDLEQLKIFANHMPPFGSYKNPVDLTGMADAKSYEGAIRDALAHPDMHSIIVLYCQTAVLDPRELADVIIREYNESGRKKPLVVAIVGGIEAKQAIDVLNENGIPAYPEPERAVKALSALYKWSKWKAKHK,soluble
2,MGSDKIHHHHHHMSQFIDILRQHLADFQWRYAHQITPEIQDAIHAMLSCRCNTARVSCCEQQREFPLSCGHRSCPQCQHGTTCDWLSKQQAKLLPVNYFMVTFTLPFELRAIAKSQPDLLYHALFTVAASVLKDFAVRSPKLSGDIGFTGVLHTYSRRRDYHPHLHCIIPAGSYHPGKRQWRKCQTHYLFNAFNLAKVWRARLLTYLSDRLQLKLPH,not soluble
3,MSLVMKASVDDDDSGWELSMPEKMEKSNTNWVDITQDFEEACRELKLGELLHDKLFGLFEAMSAIEMMDPKMDAGMIGNQVNRKVLNFEQAIKDGTIKIKDLTLPELIGIMDTCFCCLITWLEGHSLAQTVFTCLYIHNPDFIEDPAMKAFALGILKICDIAREKVNKAAVFEEEDFQSMTYGFKMANSVTDLRVTGMLKDVEDDMQRRVKSTRSRQGEERDPEVELEHQQCLAVFSRVKFTRVLLTVLIAFTKKETSAVAEAQKLMVQAADLLSAIHNSLHHGIQAQNDTTKGDHPIMMGFEPLVNQRLLPPTFPRYAKIIKREEMVNYFARLIDRIKTVCEVVNLTNLHCILDFFCEFSEQSPCVLSRSLLQTTFLVDNKKVFGTHLMQDMVKDALRSFVSPPVLSPKCYLYNNHQAKDCIDSFVTHCVRPFCSLIQIHGHNRARQRDKLGHILEEFATLQDEAEKVDAALHTMLLKQEPQRQHLACLGTWVLYHNLRIMIQYLLSGFELELYSMHEYYYIYWYLSEFLYAWLMSTLSRADGSQMAEERIMEEQQKGRSSKKTKKKKKVRPLSREITMSQAYQNMCAGMFKTMVAFDMDGKVREGHHHHHH,not soluble
4,MFQAQHLTKSFGDLVLFEDLSFSIERGEKVGLIARNGNGKTTLMNILTGIDSPDSGEVIYQNGIRRAYLPQLPQVLPGSTVLETCFGHNDEMTSLIAQWEEASARGDGKRMEELLPEMDALGAWEYEQRAREILTRLHLDDLHCTTDNLSGGELKRIALAGTLIGNPELLFLDEPTNHLDLDVIEWLEGYLSHQQIGLLLVTHDRYFLDRVCNRILELDNKQLYAYKGNYEYYLNKREERLEATERETSRAANLLRREAEWMHRRPQARGTKAKSRIDAFYELKEKAQPRHRDETLHLSEQGRYIGNKIFEAHKVCKAFGDRTILSDFDYIFSRYDKVGIVGPNGVGKTTFLRLLLGEEKPDSGYFDVGETVRFGYYSQKGMQFDENKRVIEAVQDIAEVIRNEKDGTTLSASALLTQFLFPPEKQYTPIHKLSGGEQRRLYLCTVLMKNPNFLILDEPTNDLDILTLNVLENYLSEFKGCVLVVSHDRFFMDKVVNHLFTFEGNGIVKDFPGNYTQYREYKQQEEAERQTVESSPSTRKAESEKPRTDAAERPRKLTFKEKQELERLEAELPKLEKEKAELESRMSSGTMATDELLTAGDRIAALIEEIDSKGMRWLELSDI,not soluble
5,MSKDVSIGWMYEGAKGNVHREDYLLGKKVDKNFEKYSDVVNAQKAEAIDSIVGTRAVFNSGQSTGLKTSSLQKDIIKSEDPFVAVKVREETKRREIMDNPLTKMRLQAALKSMMTSKAEKSKEKKSKKDKKKKKKKRSSSSSDESSDERVERKRRRSPSPKRRRRPSEKPRKRSRSPRRERPRSPKRSREESRKLSRKPSSSRSKSPRRSREDPRKVARKPSRSRSRSAERLRRKSRSPRRSREEPRKMSRSRSRSADKASSSRQFDSHIPRHLQQQRSRHDSSSGSESEHETRSSHRRRNSDDDERQDPRKKSYGLVEMRKRTAEEREEESRAPTKEYKLVKIPTGRGTGNTPREPRRALSEAEKAARLAEMQQDNVKWRDEIRERNVTKGRKEDDEEKEEADKNGYAPSFIRSQMREACDDMTVEKRLQSNKRGVQRAHGYMDRSFAKK,not soluble
6,MRKEDKGTVIRQLAKYIGQYPHFYLTDIEALNAEKTSELRRNCNKNGVKLVMVKNTLLRAALAASDVDFSSLYSCLKGNTAVMFCEVANSPAKVIKQFTKDTKGEGKPWLKAAYVQESFYIGRENLDALVSIKSKNELIADVVALLQSPAKNVIASLQSAGQTIHGVLKTLEEK,not soluble
7,MAHHHHHHMADYNAAGADTAVVDDNVPPGITTKQDEIIQYVAKYVVASCDGARYQDKVRTRTKHNPYFDFLNAKHPYHQYYQYLLESYRHWMRNSEAVGAGTWGGGVDATQGQGQQQQWNEEDYYQYYGAYAGQASGIEFQGNAAGQLGEGSSYVDASSSAHARNASSGVDPTSYESEAVTATGYGAGYDPSAVDPEPAQVATTAGGGEAQAEEDEDDEYELVMENGQWVSRKRM,soluble
8,MSLKFSAKLVDDPSIEKSSSAIRLMCLSDTHGVHNNINKNTIFPADILLFAGDMTLFGNPEHAESFKNFITSLPVQHKVIISGNLDLPFDLKNYSHFTEWFSKFSYKNGPESIKTTFTEDQDIIYLEHQAVTIENVKIFGSPFTPAFGDFGFPTTKDTASKLWEQVPEDTDVILCHGPPHNICDMTSTGFHAGCPELRKSVERVKPAAVVFGHIHEAHGNTMIGNTLCCNVAIVNSNRDVAYGPTYIDLIQEGHHHHHH,soluble
9,MEKLYEGKAKVLYREGPDTLRVYFKDEATAFNAQKRGVIPGKGVVNNKVSAALFRYLEAHGVKTHFLEEVSDREMRVRRVEILPLEVILRFRAAGSFARRYGLKEGTPLKMPLLEFSLKNDALGDPLICENAVLALGLTTEGELEGVKAATLRVGDLLKAFFAERGLELVDFKLEFGKVGGEILLADEISPDTMRLWDEKGEPLDKDRFRKDLGGVEEAYREVLRRVLG,soluble
10,MSNHQKRLSVPNSWPVERKTATFTVKAGAGPHGESGVPLLIVLRDVLGYADNRKEARYALNEDNVLINGKAISDEERPVGMFDILAFTEREEYYRVFPGEGGRLALTAIDPDAAQSKLGKIVTKTHVSGGDVQLGLHDGETLIVEDDQTYDAGDSIVVGNEDGEVVAHFEYEEGALVTAVDGAHAGEVGEVEEIQVTPGSAQNNVIVSQDEGEGFETVEEYVVVIDENFTGDDELEHHHHHH,soluble
11,MPLLDSFKVDHTKMNAPAVRIAKTMLTPKGDNITVFDLRFCIPNKEILSPKGIHTLEHLFAGFMRDHLNGDSIEIIDISPMGCRTGFYMSLIGTPNEQKVSEAWLASMQDVLGVQDQASIPELNIYQCGSYTEHSLEDAHEIAKNVIARGIGVNKNEDLSLDNSLLKGSHHHHHH,soluble
12,ASNVHRVQQVIHAAIATNRKLAVAGRSMVKVVSIAERLGYLEAPDDLFIDIEEVSKYDDERVAIITTGSQGEPMSALSRMAKGAHRQITITENDTVIIAATPIPGNERSVSTIVDLLHRIGADVIFGHGKVHASGHGSAEELKLMLNLMRPKFFVPIHGEFRMQHAHKELAKSVGIREEAIFLVDKGEVVEFRNGQGRKAGKVPSGNVLIDGLGVGDVGNIVLRDRRLLSKDGILVVVVTLNKQSGTILSGPNIISRGFVYVRESEKLIEEANELVTETLKKCVTENVNEWSSLKSNVREVLSRFLFEKTKRRPMILPIIME,soluble
13,MPRLENTIDIKVPVNIAYNQWTQFETFPNFMSSVLQVKQLDDSHVWWQVEIGGHAIEWETEIIEQVPDDHIAWRSVSGPRHLGLVSFKHVDIHATRVHVEIEYEADMKAEVSATMTGLLEQKISEALTCYRQLLESRKRPAGGWRGRIAVGTDNAVRHLEHHHHHH,soluble
14,SKEHQAVSLEAARQSLVLLKNETNLLPLSKSIRSIAVIGPNANEQTQLICRYGPANAPIKTVYQGIKELLPHTEVIYKKGCDIIDPHFPESEILDFPKTAEEVQLMEEAIRAAKQAEVVVMVLGGNELTVREDRSRTSLNLPGRQEELLKAVCATGKPIILVMLDGRASSINYAAAHIPAILHAWFPGEFCGQAVAEALFGDYNPGGRLAVTFPKSVGQIPFAFPFKPGSDESSSTSVYGALYPFGHGLSYTTF,not soluble
15,GPGSMRTCASTLSHLCAQGPLRGSMHVTLHALVRFCAHVASSLRSGQATLHPSLPLRFSHPLRLPSARFSHSTGVLSLALPVMQHTHIHTLTHTYSSIYRRFTARLRLSDSTCYTQGSTHTHTQSICFSIHSPLSLSLSETSALLGAPSSSSFSATSPAYRVRTASSCNRLPDGHKHFRKYIYIYIYIYWALSRISLGASADLPWNVRIHRVRMTATEYQKLIGERRLSPEEEENLVQRLYFRQMKLTEQREEERRAILERTRAQMQKHISKDEEGRLVSRMYDQQVERFANSKAERDRKLEEEMHKNDKKMDSSEIDDQVRRIYEEELKRSQARREELYSRYMPTAEAKKIGKKELKGCVERLSHVDWEKRDEELFKKYVYPYDPKTTKISRDDEQAMANRLSTTKGAG,not soluble
16,MSDRQAALDMALKQIEKQFGKGSIMKLGEQAERKVSTVSSGSLALDVALGVGGYPRGRIIEIYGPESSGKTTVSLHAIAEVQRQGGQAAFIDAEHAMDPVYAQKLGVNIDELLLSQPDTGEQGLEIAEALVRSGAVDIIVIDSVAALVPKAEIEGDMGDSHVGLQARLMSQALRKLSGAINKSKTIAIFINQIREKVGVMFGNPETTPGGRALKFYSTVRLEVRRAEQLKQGNDIVGNKTKVKVVKNKVAPPFRVAEVDIMYGEGISREGEILDMASELDIVQKSGAWYSYNEERLGQGRENSKQFLKENTDLREEIAFFIREHHGISEDSGAEGMEDPNLLD,not soluble
17,MAHHHHHHMLPFSYRVLMRGVSAVSGALSVALQHRALAGTTRSFSSSRPVWLAPAAPTKQAPPAMGGDTDAEETHPDFQPRMVSSDLAQDEIAMIKKDIDDTIRDEDVVVFIKGVPEAPMCAFSKRMIDVMEALGVEYTSFDVLAHPVVRSYVKEVSEWPTIPQLFVKGEFAGGVDIILKMAESGDLQMLLDQKSIKHRDTKP,soluble
18,MGSDKIHHHHHHVSNGAATRVRRSREKILGAAESVFLQHGFLGTNMDVIADTAGVSKQTVYAHFKSKEALFIDVVEAMTGGAAEEIGEDIEDVFGDRKAEDYLLEVAIDQLTVVLTPRLMQLRRMVIGEVERFPELGRSLYVNGPIRSITRLTRACAHYTRIGELITPDPQAAATQFNWIVMGAPTNAAMLLGDAGIPTSAQLQAHATEAVRIFLCAYGAKQMHPR,not soluble
19,MGSDKIHHHHHHMRLGVNEAVELSLGELQNTPSISYFNSIVLSLNKVQKGSLFVAKDHTLIPKALELGAYGILYTGEYPVSDRDVAWIKLKDIEHSLNHLFKFCLLNERVVGALLSPIELEIASKIMVSNFVWCLKESLEDLFIIEGCKIAFFDKLEWLHLFYKQEHLKEDLKESCLIILNQSFFCSALVYEKQEYEFKMPCIFLGSLKRVIQLCEKLQIEFDLNLLGKKEYPLDHCKPFFVNKNLEIAPYGTTARVIVAETSKELFEMMLQKAFEILSWGKIVVFCRKNSAAFFKKTNPYFYTTQNNLKEQLKNLAFNFAFIHGISSHHLESLLNPPFFKKTPTLW,not soluble
20,MAHHHHHHMSTLRHSHEPSPYVQKGEDLSGQKLTPTIKSYRNMEFLNSYSGRMIRILCEFEEPKQRLQQHFIRTTVLFFGSARSMTQAQYDSTVQDIHSKLAAATDDSTKASLQNKLACLKKTQWMCKWVDVVENLARMVAEFSQKEQDMIIRSFRHIPDYFRLTPEDGSESLDDLQKRFHDLVVTTGGGPGFMEAANHGAESVPGAVTMGMGISLPFENGLNPHVTKGLAFEFHYFFTRKFWMMYSCRAIVIAPGGFGTLDEMFELLTLKQTKKIPSLPVVLLGKEFWQTVVNWQALANYGVISQEEIDSLLFTDSAEEAVEHIKDFYHRLASDSPSTE,not soluble
